“And” between values parts separate entries of the source, which are not always exact repeats. Equal values may be shown once. Where no end group is shown, it is not given here. FAM = 5(6)-carboxyfluorescein
Assays:
Aurora-A = settings: fluorescence binding; ref Park et al. (2023) Figure 3B; cited from earlier work
Text: page 11: cycle control) in these cell lines is still useful. […] As for combined depletion of CEP192 and TPX2, this was very toxic in both U251 and RPE1 cells, unsurprising given that both proteins are essential for proliferation.

[1] = test system: His-tagged Aurora-A 122-403 or full-length (1-403); experiment: Pull-down of Aurora-A by GST-tagged CEP192; format: binding, human; settings: Aurora-A 122-403 and 1-403, western blot
Procedure: GST-tagged CEP192 constructs were overexpressed in LB and purified on glutathione resin using standard methods. Tagged proteins were eluted in 100 mM TRIS pH 7.5, 500 mM NaCl, 1 mM DTT, 10% Glycerol, 10 mM reduced glutathione, before dialysis in elution buffer without glutathione and storage at −80 °C. About 250 μg of GST-tagged CEP192 constructs or GST as a control were immobilised on 50 μl of glutathione resin (GE healthcare) per sample equilibrated in pull-down buffer (50 mM tris pH 7.5, 300 mM NaCl, 1 mM DTT, 5 mM magnesium chloride, 10% glycerol, 0.1% Tween 20). After 60 min of immobilisation the beads were washed three times in 900 μl of binding buffer to remove any excess protein. About 35 μg of His-tagged Aurora-A 122–403 or full-length protein (1–403) was added to samples of immobilised truncation or GST control. These were left to bind for 60 min on the roller. The beads were pelleted and washed three times in 900 μl of binding buffer. The resin was resuspended in 100 μl of SDS loading dye. After separation on an SDS-PAGE gel, these were transformed onto nitrocellulose membranes before probing with anti-GST and anti-His primary antibodies.

[2] = target: T1, phosphorylated Aurora-A^CAKD (Aurora-A 122–403 C290A C393A, not co-expressed with lambda phosphatase) (human, UniProt O14965 122-403, C290A | C393A, phosphorylated (sites of this preparation not printed in the text shown)); experiment: cell-based or functional assay
T1 sequence (looked up): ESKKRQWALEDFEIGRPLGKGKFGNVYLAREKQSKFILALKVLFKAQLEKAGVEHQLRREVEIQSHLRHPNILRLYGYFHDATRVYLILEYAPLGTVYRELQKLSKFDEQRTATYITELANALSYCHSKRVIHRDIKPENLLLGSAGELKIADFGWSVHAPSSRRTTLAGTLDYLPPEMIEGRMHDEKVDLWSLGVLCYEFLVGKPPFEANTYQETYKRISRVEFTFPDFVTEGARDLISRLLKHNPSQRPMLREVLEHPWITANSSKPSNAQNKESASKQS

[3] = target: T1, phosphorylated Aurora-A^CAKD (Aurora-A …); experiment: ITC; 250 μM Aurora-A in the syringe, 25 μM CEP192 construct in the cell; 25 °C; 20 mM tris pH 7.5, 200 mM NaCl, 10% glycerol, 5 mM MgCl2; settings: both partners purified
[4] = target: T2, Aurora-A^CAKD (Aurora-A kinase domain, aa 122–403 C290A, C393A), unphosphorylated (human, UniProt O14965 122-403, C290A | C393A); experiment: as above; settings: both partners purified
T2 construct: Aurora-A kinase domain, human, residues 122-403, variant lacking surface cysteines; also called Aurora-A 122–403 C290A C393A; unphosphorylated Aurora-A^CAKD; source: E. coli RIL, co-expressed with lambda phosphatase, purified (HisTrap, TEV cleavage, SEC); not shown: His6, N-terminal, cleaved
T2 sequence (looked up): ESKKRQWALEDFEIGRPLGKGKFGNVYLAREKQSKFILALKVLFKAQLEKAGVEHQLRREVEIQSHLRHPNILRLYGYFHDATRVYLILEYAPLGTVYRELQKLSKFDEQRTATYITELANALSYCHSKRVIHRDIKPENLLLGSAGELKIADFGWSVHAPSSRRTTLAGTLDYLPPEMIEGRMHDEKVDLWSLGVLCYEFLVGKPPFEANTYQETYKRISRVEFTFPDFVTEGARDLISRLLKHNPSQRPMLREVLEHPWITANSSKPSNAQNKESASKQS

[5] = target: T2, Aurora-A^CAKD (Aurora-A kinase domain, …); experiment: fluorescence polarisation; competition: 10 μM unphosphorylated Aurora-A^CAKD preincubated with 100 nM FAM-TPX2 7-43, CEP192 competitor serially diluted; 25 mM HEPES pH 7.5, 150 mM NaCl, 2 mM DTT, 5 mM MgCl2, 0.01% Tween 20; settings: both partners purified
[6] = target: T2, Aurora-A^CAKD (Aurora-A kinase domain, …); experiment: fluorescence polarisation; competition: 25 μM Aurora-A kinase domain preincubated with 100 nM FAM-TACC3 522-536, CEP192 competitor serially diluted; 25 mM HEPES pH 7.5, 150 mM NaCl, 2 mM DTT, 5 mM MgCl2, 0.01% Tween 20; settings: both partners purified
[7] = target: T3, Aurora-A^M7KD (Aurora-A 122–403 D274N C290A C393A N332A Q335A T347A D350A) (human, UniProt O14965 122-403, D274N | C290A | C393A | N332A | Q335A | T347A | D350A); experiment: fluorescence polarisation; direct fluorescence anisotropy: Aurora-A diluted across the plate, 50 nM tracer FAM-CEP192 501–533; 25 mM HEPES pH 7.5, 150 mM NaCl, 2 mM DTT, 5 mM MgCl2, 0.01% Tween 20; 1 h at room temperature; settings: both partners purified
T3 construct: Aurora-A kinase domain, human, residues 122-403, with crystal-contact mutations in the C-lobe; also called Aurora-A^M7KD-D; Aurora^M7KD; source: E. coli, purified; not shown: His6, N-terminal, cleaved
T3 sequence (looked up): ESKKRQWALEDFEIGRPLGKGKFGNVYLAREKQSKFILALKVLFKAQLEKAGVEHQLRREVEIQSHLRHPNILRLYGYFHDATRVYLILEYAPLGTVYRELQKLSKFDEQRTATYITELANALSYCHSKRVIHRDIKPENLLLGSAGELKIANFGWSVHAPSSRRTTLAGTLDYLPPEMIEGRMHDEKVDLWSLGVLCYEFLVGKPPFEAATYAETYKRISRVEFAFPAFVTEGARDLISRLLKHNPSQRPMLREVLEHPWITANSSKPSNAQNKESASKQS

[8] = target: T1, phosphorylated Aurora-A^CAKD (Aurora-A …); experiment: as above; settings: both partners purified
[9] = target: T2, Aurora-A^CAKD (Aurora-A kinase domain, …); experiment: as above; settings: both partners purified

## FAM-CEP192 506-536: labelled peptide of Park et al 2023
Aurora-A
  Kd: 700 nM

B1: CEP192 405-649: GST-tagged CEP192 fragment 405-649 (protein, UniProt Q8TEP8 405-649, looked up, fragment)
chain: HMDGCLDTETPTVSIQENVDVASLKPISDSGINFTDAIWSPTCERRTCECHESIEKNKDKTDLPQSVVYQNEEGRWVTDLAYYTSFNSKQNLNVSLSDEMNEDFRSGSEAFDLIAQDEEEFNKEHQFIQEENIDAHNTSVALGDTSWGATINYSLLRKSRSTSDLDKDDASYLRLSLGEFFAQRSEALGCLGGGNNVKRPSFGYFIRSPEKREPIALIRKSDVSRGNLEKEMAHLNHDLYSGDLN
modifications: GST tag
[1]
  co-precipitation of Aurora-A: able to interact significantly with Aurora

B2: human CEP192 468–533 (domain or fragment, UniProt Q8TEP8 468-533, looked up)
chain: PQSVVYQNEEGRWVTDLAYYTSFNSKQNLNVSLSDEMNEDFRSGSEAFDLIAQDEEEFNKEHQFIQ
notes: also called CEP192_(506-527_F); source: E. coli B834 RIL, purified (HisTrap, TEV cleavage, SEC); for crystallisation co-expressed with Aurora-A^M7KD and co-purified; not shown: His6, N-terminal, cleaved; SUMO, N-terminal, cleaved
[2]
  ADP-Glo, 10 nM phosphorylated Aurora-A^CAKD with kemptide: IC50 of partial inhibition of kinase activity: 18 nM
[3]
  Kd: 134 nM
[4]
  Kd: 80.6 nM
[5]
  IC50: 3700 nM
[6]
  IC50: 5000 nM

B3: FAM-CEP192 501–533 (peptide, UniProt Q8TEP8 501-533, looked up)
peptide: {FAM}-SDEMNEDFRSGSEAFDLIAQDEEEFNKEHQFIQ
notes: Made on Rink amide resin and labelled on resin after synthesis, so N-terminal label and C-terminal amide are likely; MS data of the peptides are in the source data; source: synthetic peptide
[7]
  Kd: 1250 nM
[8]
  Kd: 370 nM
[9]
  Kd: 420 nM and 1170 nM

From PMC11574021, “CEP192 localises mitotic Aurora-A activity by priming its interaction with TPX2” (The EMBO Journal, 2024)
